Among the data in a protein production outcome set (Wang et al. 2014) are protein production values, retold here.
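Further: failed if final PepcDB status was selected cloned or expressed and not failed if soluble or beyond.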

The nature of this data set: label from the status in PepcDB records.
As to “MKQKQFYFIYVFLLSMTFLGACSKDSPNELIPNTIVKIEIDKLPGKRIYFIGEELDVSDMTLKVFYSNETSEIVPVKKDEVTGFNSTVPENDQILEVHKGSFTVTFKIQVLINDIQAISIKTLPSKTVYTLGEPLSLSNMVLEINYADGTIKENSAPSADWVQGFNSSVPAQLQIVTLELDGKQVSFDVQILPVKVDGDKVVSVIDSDFTSITFPDGIRTIGSKAFENKNIKASELLCPASLSTIEQAAFAYCRNLKIVDLSHTSIKELPEEAFLFSGIKKIALPASLEIVGKEAFYGCTDLNVIDISHTSVKELQNGAFGKSGISSISLPSTFKIVGASAFIETKNLKELTLPEGSEVIDLEAFSGSSIQKVTLPNTIYHIDRSFYSCPELTTIETYGTRTTPSPVDRTAAIVSECFNHSPKLTVLKIPASIVKIGISALNKCQVKTLILPASVKALDFNAFGNAVSLDEISLMSPTMVTADYYPVPPGIQKIRVPQNLVETYKQNKAWKPFAEKIVAL”, the protein production result is given as “failed”.
Take “MRRKLRYLNYRILIPYLILVVVGIILVYSASSDILLVNGFKPDVYGIRQAIYAAVAFFGFGIPFFALRLKVIKNPKFVAGFLIICILMLLWLVFLRFAHGSAAAVNGAVGWINLGFINLQPLEVTKLALVIYLAYVLDRRDGKLVRGKIKDNLSHPAMLAGFLMCLVIVEPDFGGTAILFMITLVMFSVSGVPVRLALTWLLGIILLVGAVFILVVLWNPKFLQDSYQFQRLMSFLHPFQLERKGGAQLVNSYYAIHNGGLFGVGLGNSMQKRGYLPEPYTDFILSITAEEIGVIFTIVLVGLLFYLMWQIMEVGINAVSQFDALICFGVTTIIFTEALFNIGAVLGLLPITGVTLPFISYGGSSMIVLTAAIGLVLNVSANEKMLKEKDETIA”: the protein production entry was “failed”.
As for “MTKLPATSDIYISFFMFTTNLQPDNLDYRRIVVAHIKKLQRFGYSGFEFPIAPGLPENYAQDLENYTNLRHYLDSEGLENVKISTNVGATRTFDPSSNYPEQRQEALEYLKSRVDITAALGGEIMMGPIVIPYGVFPTTDFNEPIWSDELQEHLKVRYANAQPILDKLGEYAEIKKVKLAIEPITHWETPGPNKLSQLIEFLKGVKSKQVGVVIDSAHEILDGEGPEIFKTQVEYLAQQGRLHYVQVSPPDRGALHTSWLPWKSFLTPIVKVYDGPIAVEIFNAIPAFTNSLRLTRRKFWIPDEDPPNQYPNAYDIADEAIKVTRKELKKIGSK”, the protein production entry was “not failed”.
As for “MRAGVREVIDDSSERTLQQVIERAFLRTKGAIIRQKRVFGFVSAKGGDGGSCIAANFAFALSQEPDIHVLAVDISLPFGDLDMYLSGNTHSQDLADISNASDRLDKSLLDTMVQHISPSLDLIPSPATFEKIVNIEPERVSDLIHIAASFYDYIIVDFGASIDHVGVWVLEHLDELCIVTTPSLQSLRRAGQLLKLCKEFEKPISRIEIILNRADTNSRITSDEIEKVIGRPISKRIPQDEDAMQESLLSGQSVLKVAPKSQLSKTIVDWALHLNGVSRPNKRSIWERLKIK”, the entry is “not failed”.
“MSDDLALTALAASSFSLPELREGQLAGMTALVERRDVLAVMPTGYGKSATYQVAALYLHNKTGRPAVVVSPLIALQEDQLDGLAEHLGEGAGVAINSSRSDAEVEAAWQAVESGQAAFLFLAPEQLSKRETVERIANLDITMFVVDEAHCVSSWGHDFRPDYLELGHVREHLGNPPVIALTATASPPVRDEIVKRLGMTEPVVLVRGFDRPNISLDVVRHQEDKGKRKAVMEQVVALAKAEGLGLLYAATRKATEKYAAKLTEHGLRAEAYHAGRADSDRESIHERFLDDQLDVVVATTAFGMGIDKPNVRFVVHADIPESLDSYYQEIGRAGRDGEPATAILHYRAEDLGLRKFFATHSPDAEALTAVLKVIKNAGAPVPKTALVELTGFPARRVTALVNQLEEAGAVTTGKRGTRLSSKAKLTTLVDRAVELAEARQRVDQSRLTMMRAYAETDACRRQFLLGYFGEDLPEPCGNCDACAEIHDDAGSGSAGHLTSTAENLFPLQSTVIHKEWGPGLVMRHEDDVMTVLFEQEGYKTLSRAAVVEHELLKPA”: the protein production result is “failed”.
The result for “MVHEKKKMRKNHKKITHKGKKITTGAASVLLGAGIVVGANARPVKATSSREDEITEVDTINVISSETEKADVEQRTDTTETVETEGNVDNTNTEVSVPIDETINTEAQAANNTTQVESTVEDTTQEETTETQQNPSVDNQEPVLSDPPSVESPEDSATEVTTTKTTDEVKNAADEANKENKDKLDAEINKAEDNGHTVTQDGDKVYKADATNIDKIIEDLNQFTADQITDIETKLAKYKEELEAYKADQVRYEAELKNYQTAKDAYVKKLEEWGLYKPGDIDPSDISQSLILGEEKNSKVEVLNKGSVVDEGTGSILNGLLNHFYTIDEKFDGEFLKLQYTNLENITYMGKNIDSIQIIFSGWNPNYKGKNADKRTSGIYFSDKLTDGFFYVNSDGVTMEMILFENGKTINLDKNSAYITAGSLNSQGTGNDYIEKAEIFNNSSEYGGSAVTFQDSFIRRHDGTYGGDVLYADQNIEVLAVYPGKDQTLEDAIEEQKKLALEAGWKQEIIDKFINWDSSTDRSKAIFGAGAFMVYGNKIKIRFSNGIGSAWATYSTSIPGMAFREEKPKEPTVPEPPKLDLTYTPGHIELSKSNVHIHYVDVHDTAQAGKNDSFVPDDGIELDDHVDHQLDLLIGTGYNHDLWNFEDAGYILAEEIKDGVQNGTVIKDDQHHYVYLKHKFIPTTDEENEKKDVNQVIHYVYDATGETAYKDYHAVTLHFIKSGQKDVVNGNIIWGNWTLAQDFAGVKSPSIEGYHLKDKNDDVVGPYTIEVTEKNYQNNLDVEYTVRYVANATQELNLKKEVNQVIHYIYENGTKAHDDYHALTLLFEKKGIKDLETGEETWGEWTKTQTFVVVKSPDIQNYIADRLEVGPYEITVTDENYKTNLDKDDIVIYRARIEEVTRDKVVNQVIHYIYEDGSTARPDHVSVKLVFTQTGVKNLATNTTNWNGEWTKTQTFVVVKSPEIEGYTADREEVGPYDITVTNENYNDKLDKEDTVIYRANTNVPDNPDPDNPTPDNPDPDNPTPDTPTPDPTPGDDEEIATPPLPEDEIGNYPSQSDEDDEEERTAPHATGKETRSGTNKNNARVISLENAGSDDSVTPENVSTEATDKTDEKQTTVNSTNEKTLPATGEEKDDFAKVMSGLAAALGITGLAVTSKRRKATAKRSKKDKKNGK” reads “failed”.
As for “MLLDEIKRMSYDELKRLAEDIRKRITEVVLKNGGHLASNLGTIELTLALYRVFDPREDAIIWDTGHQAYTHKILTGRDDLFHTIRTFGGLSGFVTRRESPLDWFGTGHAGTSIAAGLGFEKAFELLGEKRHVVVVIGDGALTSGMALEALNQLKNLNSKMKIILNDNGMSISPNVGGLAYHLSKLRTSPIYLKGKKVLKKVLEKTEIGFEVEEEMKYLRDSLKGMIQGTNFFESLGLKYFGPFDGHNIELLEKVFKRIRDYDYSSVVHVVTKKGKGFTAAEENPTKYHSASPSGKPKMLSYSELLGHTLSRVAREDKKIVAITAAMADGTGLSIFQKEHPDRFFDLGITEQTCVTFGAALGLHGMKPVVAIYSTFLQRAYDQIIHDVALQNAPVLFAIDRSGVVGEDGPTHHGLFDINYLLPVPNMKIISPSSPEEFVNSLYTVLKHLDGPVAIRYPKESFYGEVESLLENMKEIDLGWKILKRGREAAIIATGTILNEVLKIPLDVTVVNALTVKPLDTAVLKEIARDHDLIITVEEAMKIGGFGSFVAQRLQEMGWQGKIVNLGVEDLFVPHGGRKELLSMLGLDSEGLTKTVLTYIKARSREGKV”, the entry is “failed”; as for “MTASDQFNSTHSAVDQYAELVLHNGRMYTLDPAQPWADAVAIRQGKLIAVGSLASLASLIGPNTRQHDLDGAFCMPGLHDMHTHPDLALAPRYADDLDVGIEDPTPEQLAAAIHAYADSHPGDGWIYGQYWVRYTFREAGLTPGREWLDSVMPHRPVALLDRMWGTMMVNSKALELAGIDRHTSDPRNGYLERDELTGEPNGLLIDGAYALIHAAMPPTPVSVLRRAYRDGVHFQTSRGVTATKYVHVCENRLQALKELDDAGELTLRVEAAISWQDDIFPVRRRWELLSGERHFYRSARLSANAVKFHFDGTVEPKSSYLLTPWPEESSWRGKLNLTPEHITDMVVDMDKRGLRVIAHCTGDGASDVFLDAVAEARRRNGNSGIRHQCAHSTLLHPGNLKRFQALDVIAEFSPAAWYPTPFASGARSGYGQERLKRIYDFKGVLAAGGIAVFGTDWPVASIDPWLALETMVTRQNPWNQEPDTFGDPISLEQALQVATLNGAHAMGLEHLTGSLEAGKSADLIVLDRDLFAQGARNYIHHTQVQLTFVEGQLVYDRQGTFSDTPLQAVWEGLPPVIEGKE”, “failed”.
